From article doi:10.1101/2024.08.29.607757 (bioRxiv, 2024)
Blank lines part the entries; values can stand above or below the binder they belong to.

B1: NtcA from Synechococcus elongatus (strain PCC7942) with N-terminal His6 tag (natural protein)
chain: MLANENSLLTMFRELGSGKLPLQIEQFERGKTIFFPGDPAERVYLLVKGAVKLSRVYESGEEITVALLRENSVFGVLSLLTGQRSDRFYHAVAFTPVQLFSVPIEFMQKALIERPELANVMLQGLSSRILQTEMMIETLAHRDMGSRLVSFLLILCRDFGIPSPDGITIDLKLSHQAIAEAIGSTRVTVTRLLGDLRESKLIAIHKKRITVFNPVALSQQFS

Columns and labels:
crystal structure = target: the molecule itself; experiment: crystal structure
NtcA = target: T1, NtcA (Synechococcus elongatus PCC7942, UniProt P29283 1-222); experiment: X-ray crystallography
T1 sequence: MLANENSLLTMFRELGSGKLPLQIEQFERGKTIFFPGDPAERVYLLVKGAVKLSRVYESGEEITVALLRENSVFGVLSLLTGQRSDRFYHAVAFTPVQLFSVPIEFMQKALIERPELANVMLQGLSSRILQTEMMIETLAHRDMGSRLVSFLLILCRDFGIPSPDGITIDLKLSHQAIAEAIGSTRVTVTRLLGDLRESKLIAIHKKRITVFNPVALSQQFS

[1] = target: B1; experiment: crystal structure

Binder: B1
binding result (crystal structure): binds

B2: nicked symmetric glnA half-site NtcA box (NtcA-DNA crystal) (dsDNA)
DNA 1: CATTTTTATGTATC
DNA 2: AGCTGATACATAAAAAT
binding result (NtcA): binds

binding result [1]: binds
B3: PipX from Synechococcus elongatus (strain PCC7942) with N-terminal His6 tag (natural protein)
chain: MASENYLNHPTFGLLYQICSFGDSKELFATLYAQRLFFLVAFDARGTRFEPIGRNEARMLVDNRLRQLRRDASLQEYNQLQQVFKQTFL
